# Laboratory results reported in patent US20060110492A1, “Preparation and food product comprising an active phytase” (priority 2003, published 2006).
# Experiments:
# [1] = Mineral partitioning in ground Cruesli with added FePA and/or phytase (AES-ICP); format: biochemical; details: phytase 115 FTU/g
# Procedure: 0.1 g of this preparation was added to 20 g ground Cruesli™ (Quaker Foods & Beverages). […] […] The suspension was incubated at 37° C. with constant stirring for 4 h, and subsequently centrifuged for 20 minutes at 16000 rpm and 4° C. After centrifugation, the sediment and the supernatant fraction were separated, weighed and analyzed by AES-ICP to determine their phosphorus, calcium, magnesium, zinc and iron content. Control suspensions without phytase activity (but with the FePA), and without both FePA and phytase underwent the same procedure.
# [2] = Fe retained in sedimented fraction of suspended salt (AES/ICP); format: physicochemical
# Procedure: The prepared FePA as described in Example 3 was suspended either at pH 2 or at pH 5,5 in a concentration of 35.8 g per liter. After sedimentation, the supernatant fraction of both suspensions was analysed by AES/ICP.
# Subsequently, the suspension of pH=2 was centrifuged 10 minutes at 6000 rpm at room temperature. The pellet was dissolved in 15 g concentrated […] and the solution was analyzed by AES/ICP.
# This procedure was repeated with iron phosphate. This salt was prepared in the same way as the preparation of the essential cation phytates: the cation was dissolved as its sulfate, and subsequently precipitated with a basic solution of sodium phosphate. The precipitate was collected and washed.
# [3] = Phytase activity on different substrates (method of Engelen et al.); format: biochemical; details: 37° C.; for Activity: incubation 60 minutes
# Procedure: The activity of Aspergillus niger phytase (NATUPHOS™) was tested against NaPA and CaPA. The influence of the metal in the phytate source on the phytase activity (37° C. using an incubation time of 60 minutes) was investigated. The rate of phytate hydrolysis was determined using the analytical method described by Engelen et al., J. AOAC Int. 77:760-764 (1994).
# [4] = Mineral partitioning in ground Cruesli fractions with added phytase activity (AES-ICP); format: biochemical
# Procedure: Various phytase preparations are commercially available. We have used the liquid formulation NATUPHOS™ 5000 L (DSM, Delft, The Netherlands). Again we used ground Cruesli™ (Quaker Foods & Beverages) as model phytate-containing foodstuff. About 20 grams ground Cruesli™ was suspended in two separate lots of 40 g acetate buffer (0.25 M, pH 5.5, 37° C.). To one of the lots, 1.2 g of the phytase preparation was added, to achieve a final activity of 100 FTU/g. The suspensions were incubated at 37° C. with constant stirring for 1,5 h, and subsequently centrifuged for 20 minutes at 16000 rpm and 4° C. After centrifugation the sediment and the supernatant fraction were separated, weighed and analyzed by AES-ICP to determine their phosphorus, calcium, magnesium and zinc content.
# The procedure for this example was the same as for Example 6, but a lower final phytase activity in the incubation was used: 1 FTU/g, instead of 100. The incubation time was lowered to 1 hour.
# The procedure for this example was the same as for Example 7, but at a lower pH value and a longer incubation time. This was done to simulate the conditions existant in the stomach. We looked specifically at iron, because iron salts are believed to be particularly poorly soluble at higher pH values, making breakdown in the stomach an attractive option. Iron concentrations were determined by AES-ICP.
# [5] = characteristic stomach pH-values; cited from earlier work
# [6] = incubation pH 2, 37° C., 4 h, where added: Fe-phytate 450 mg/kg
# [7] = incubation pH <1, where added: Fe-phytate 450 mg/kg
# [8] = pH 2, 37° C., 2 h, phytase 1 FTU/g
# [9] = pH 5.5, 37° C., 1 h, phytase 1 FTU/g
# [10] = pH 5.5, 37° C., 1.5 h, phytase 100 FTU/g
# [11] = incubation pH 5.5, where added: Fe-phytate 450 mg/kg
molecule,measurement,setting,value
Iron-phytate [Fe-phytate],"Percentage of mineral in supernatant fraction, Iron",[1]; [6],10%
same,"Percentage of mineral in supernatant fraction, Phosphorus",[1]; [6],9.6%
same,"Percentage of mineral in supernatant fraction, Iron",[1]; [7],23%
same,"Percentage of mineral in supernatant fraction, Phosphorus",[1]; [7],68%
same,Fe retained in the sedimented fraction,[2]; suspended at pH 2,more than 90%
same,Fe retained in the sedimented fraction,[2]; suspended at pH 5.5,more than 90%
iron phosphate [reference compound],Fe retained in the sedimented fraction,[2]; suspended at pH 2,less than 10%
same,Fe retained in the sedimented fraction,[2]; suspended at pH 5.5,more than 90%
"phytase: Phytase from A. niger commercialized under the trade name NATUPHOS; liquid (5000 L) and granulated (5000 G) formulations, 5000 FTU/g (protein, UniProt P34752 24-467, looked up) Phytase A: ASRNQSSCDTVDQGYQCFSETSHLWGQYAPFFSLANESVISPEVPAGCRVTFAQVLSRHGARYPTDSKGKKYSALIEEIQQNATTFDGKYAFLKTYNYSLGADDLTPFGEQELVNSGIKFYQRYESLTRNIVPFIRSSGSSRVIASGKKFIEGFQSTKLKDPRAQPGQSSPKIDVVISEASSSNNTLDPGTCTVFEDSELADTVEANFTATFVPSIRQRLENDLSGVTLTDTEVTYLMDMCSFDTISTSTVDTKLSPFCDLFTHDEWINYDYLQSLKKYYGHGAGNPLGPTQGVGYANELIARLTHSPVHDDTSSNHTLDSSPATFPLNSTLYADFSHDNGIISILFALGLYNGTKPLSTTTVENITQTDGFSSAWTVPFASRLYVEMMQCQAEQEPLVRVLVNDRVVPLHGCPVDALGRCTRDSFVRGLSFARSGGDWAECFA",activity of phytase on sodium and on calcium phytate compared,[3]; 60 minutes,equivalent
same,Activity,[3]; substrate 4.6 mM calcium phytate,3.12 * 10^5 FTU/g
same,Activity,[3]; substrate 5.1 mM calcium phytate,3.07 * 10^5 FTU/g
same,Activity,[3]; substrate 5.1 mM sodium phytate,3.06 * 10^5 FTU/g
same,Activity,[3]; substrate 5.6 mM calcium phytate,3.10 * 10^5 FTU/g
same,"% of mineral in supernatant fraction, Iron",[4]; [8],14%
same,"% of mineral in supernatant fraction, Phosphorus",[4]; [8],33%
same,"% of mineral in supernatant fraction, Calcium",[4]; [9],30%
same,"% of mineral in supernatant fraction, Magnesium",[4]; [9],36%
same,"% of mineral in supernatant fraction, Phosphorus",[4]; [9],30%
same,"% of mineral in supernatant fraction, Zinc",[4]; [9],22%
same,"% of mineral in supernatant fraction, Calcium",[4]; [10],40%
same,"% of mineral in supernatant fraction, Magnesium",[4]; [10],49%
same,"% of mineral in supernatant fraction, Phosphorus",[4]; [10],42%
same,"% of mineral in supernatant fraction, Zinc",[4]; [10],19%
same,"Percentage of mineral in supernatant fraction, Iron",[1]; [11],6%
same,"Percentage of mineral in supernatant fraction, Phosphorus",[1]; [11],45%
same,"residual activity, % of optimal activity",[5],about 50%
